Measurements as given in article PMC5410052.

Key:
[1] = biological target: human MMP-1 (collagenase 1) (human) (UniProt P03956); assay: enzyme inhibition assay (quenched fluorescent peptide substrate); 60/60/250/500 nM MMP-1/-2/-7/-14cd incubated with 0.98-1000 nM (N-)TIMPs for 30 min at room temperature, then 1 uM M-2350 substrate; KI from the equation for slow tight-binding inhibitors
[2] = biological target: human MMP-2 (gelatinase A) (human) (UniProt P08253); assay: as above
[3] = biological target: human MMP-7 (matrilysin) (human) (UniProt P09237); assay: as above
[4] = biological target: catalytic domain of human MMP-14 (cdMMP-14) (human) (UniProt P50281)
[5] = biological target: human MMP-1 (collagenase 1) (human) (UniProt P03956)
[6] = biological target: human MMP-2 (gelatinase A) (human) (UniProt P08253)
[7] = biological target: human MMP-7 (matrilysin) (human) (UniProt P09237)
[8] = biological target: catalytic domain of human MMP-14 (cdMMP-14) (human) (UniProt P50281); assay: enzyme inhibition assay (quenched fluorescent peptide substrate); 60/60/250/500 nM MMP-1/-2/-7/-14cd incubated with 0.98-1000 nM (N-)TIMPs for 30 min at room temperature, then 1 uM M-2350 substrate; KI from the equation for slow tight-binding inhibitors

Sequence of UniProt P03956 (P03956 100-469): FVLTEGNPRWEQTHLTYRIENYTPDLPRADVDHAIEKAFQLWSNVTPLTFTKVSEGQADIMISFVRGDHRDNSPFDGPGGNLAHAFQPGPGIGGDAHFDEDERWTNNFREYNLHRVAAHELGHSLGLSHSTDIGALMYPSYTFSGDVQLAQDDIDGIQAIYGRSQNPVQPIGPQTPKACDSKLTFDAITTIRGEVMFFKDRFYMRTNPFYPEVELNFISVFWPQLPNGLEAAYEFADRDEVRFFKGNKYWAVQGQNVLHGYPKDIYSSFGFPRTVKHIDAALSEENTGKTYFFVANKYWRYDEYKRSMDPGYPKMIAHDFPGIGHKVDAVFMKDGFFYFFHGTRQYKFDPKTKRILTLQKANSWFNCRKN
Sequence of UniProt P09237 (P09237 95-267): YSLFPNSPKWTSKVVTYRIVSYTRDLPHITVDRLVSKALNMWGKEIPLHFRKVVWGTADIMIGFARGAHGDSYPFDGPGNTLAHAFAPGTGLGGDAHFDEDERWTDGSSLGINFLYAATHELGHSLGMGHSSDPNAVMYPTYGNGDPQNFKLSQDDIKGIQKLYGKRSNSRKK
Sequence of UniProt P08253 (P08253 110-660): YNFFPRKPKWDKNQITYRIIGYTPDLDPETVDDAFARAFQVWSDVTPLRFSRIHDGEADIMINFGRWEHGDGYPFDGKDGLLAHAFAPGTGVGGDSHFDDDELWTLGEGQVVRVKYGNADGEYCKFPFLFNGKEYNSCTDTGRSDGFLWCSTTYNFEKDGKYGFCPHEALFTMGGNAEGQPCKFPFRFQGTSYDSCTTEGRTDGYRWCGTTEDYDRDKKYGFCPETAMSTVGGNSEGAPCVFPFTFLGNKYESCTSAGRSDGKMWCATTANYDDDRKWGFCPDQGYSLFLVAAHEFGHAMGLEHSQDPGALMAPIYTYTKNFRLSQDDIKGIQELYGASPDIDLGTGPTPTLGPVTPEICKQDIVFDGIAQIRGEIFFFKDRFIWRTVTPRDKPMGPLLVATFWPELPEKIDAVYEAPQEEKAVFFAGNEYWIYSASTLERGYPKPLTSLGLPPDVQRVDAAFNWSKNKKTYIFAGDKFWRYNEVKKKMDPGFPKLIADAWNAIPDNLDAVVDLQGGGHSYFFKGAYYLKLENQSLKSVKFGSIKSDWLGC

Row | Substance | Ki [1] | Ki [2] | Ki [3] | IC50 of inhibition of cdMMP-14 cleavage of a quenched fluorescent peptide substrate [4] | IC50 of inhibition of MMP-1 cleavage of a quenched fluorescent peptide substrate [5] | IC50 of inhibition of MMP-2 cleavage of a quenched fluorescent peptide substrate [6] | IC50 of inhibition of MMP-7 cleavage of a quenched fluorescent peptide substrate [7] | Ki [8]
1 | N-terminal domain of human TIMP-1 (N-TIMP-1) (domain or fragment) | 7.21 nM | 11 nM | 4.62 nM | – | – | – | – | –
2 | N-terminal domain of human TIMP-2 (N-TIMP-2) (domain or fragment) | 0.65 nM | 0.8 nM | 2.86 nM | 72 nM | 3 nM | 6 nM | 38 nM | 3.96 nM
